The record followed here is patent publication US20050266562.

One series concerns the target Sp1 (UniProt P08047). As to the kind of experiment: cell_activity. The note with it: luciferase induction in Drosophila cells.
A further series addresses Sp3 (UniProt Q02447). As to the kind of experiment: cell_activity. The note with it: luciferase induction in Drosophila cells.

Sequence of Sp1 (P08047 2-785): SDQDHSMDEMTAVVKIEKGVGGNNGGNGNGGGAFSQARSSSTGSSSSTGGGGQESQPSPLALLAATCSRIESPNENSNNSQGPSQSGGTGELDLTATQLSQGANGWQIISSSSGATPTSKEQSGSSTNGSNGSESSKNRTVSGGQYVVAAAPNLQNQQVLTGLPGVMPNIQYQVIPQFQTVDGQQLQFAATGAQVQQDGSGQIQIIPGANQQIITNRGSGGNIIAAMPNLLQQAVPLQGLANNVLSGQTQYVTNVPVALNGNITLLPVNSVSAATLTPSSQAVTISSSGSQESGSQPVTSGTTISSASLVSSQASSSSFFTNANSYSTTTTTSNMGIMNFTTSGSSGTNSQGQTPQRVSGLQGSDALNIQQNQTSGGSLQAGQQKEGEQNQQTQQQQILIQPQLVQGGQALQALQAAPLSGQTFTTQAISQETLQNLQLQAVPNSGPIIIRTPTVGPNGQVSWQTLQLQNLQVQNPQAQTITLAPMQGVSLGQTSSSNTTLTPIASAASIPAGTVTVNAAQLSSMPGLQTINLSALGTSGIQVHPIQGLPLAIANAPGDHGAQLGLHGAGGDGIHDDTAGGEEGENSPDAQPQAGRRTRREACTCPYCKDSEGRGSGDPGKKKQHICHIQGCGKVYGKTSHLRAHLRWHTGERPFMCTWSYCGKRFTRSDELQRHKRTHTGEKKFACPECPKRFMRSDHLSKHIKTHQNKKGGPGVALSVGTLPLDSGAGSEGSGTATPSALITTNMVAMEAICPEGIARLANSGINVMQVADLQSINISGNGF
Sequence of Sp3 (Q02447 whole entry): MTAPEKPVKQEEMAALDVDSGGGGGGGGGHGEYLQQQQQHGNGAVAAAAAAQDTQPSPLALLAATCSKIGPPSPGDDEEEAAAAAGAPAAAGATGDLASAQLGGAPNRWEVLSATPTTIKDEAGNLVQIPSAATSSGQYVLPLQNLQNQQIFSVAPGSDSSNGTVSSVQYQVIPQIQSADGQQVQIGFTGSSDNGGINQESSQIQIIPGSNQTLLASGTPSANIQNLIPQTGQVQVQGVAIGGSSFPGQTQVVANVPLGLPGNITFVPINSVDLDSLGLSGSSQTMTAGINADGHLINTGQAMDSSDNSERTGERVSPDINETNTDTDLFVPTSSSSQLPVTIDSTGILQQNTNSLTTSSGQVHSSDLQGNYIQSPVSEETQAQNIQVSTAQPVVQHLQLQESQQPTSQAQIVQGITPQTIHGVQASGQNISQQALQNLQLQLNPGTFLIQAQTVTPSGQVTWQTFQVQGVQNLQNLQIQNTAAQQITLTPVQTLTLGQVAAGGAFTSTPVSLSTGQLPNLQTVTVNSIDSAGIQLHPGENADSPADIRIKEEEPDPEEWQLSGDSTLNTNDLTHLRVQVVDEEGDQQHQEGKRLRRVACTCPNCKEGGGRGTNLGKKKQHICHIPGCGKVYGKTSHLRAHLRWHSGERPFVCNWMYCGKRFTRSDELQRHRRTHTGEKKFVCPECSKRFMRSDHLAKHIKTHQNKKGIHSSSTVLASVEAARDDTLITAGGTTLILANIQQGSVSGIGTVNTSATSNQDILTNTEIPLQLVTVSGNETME

As for CD11c promoter -196/+30 (luc reporter), the values for the activity in the series with Sp1 and with Sp3 were 19.5 fold and 18.9 fold, respectively. “CTGTATTGTTGTACAGAACTGCAGTTTGTTCTTTGTTATTTATTGTAAAGACAGGGTCTGGCTATGTTGCCTAGGCTGGTCTCGAACTGTTGGCCTCAAGCAATCCACCTGCCAAGCTCTGGGACCACAGGCATGAGCCATGGCATCTGATCKGTAGTTTGATCTTATTTCTTGCTGAGTAGTAGCCCATGGCATGACTTTATTATTTTGGGTGTCCATTCTCCTCTGGAGGGGCTCTGCTTTTTGAAACCACACCCTGGCCTAGCTCCCCTTCTCCCTGCCTCTCTGCAGGCTCACATCCACATGCCAAGACCTCTGCAGCCATTCTGCTTCCTGTCCTTCCACTCCTGTGGGACCTCAGAGAGCTACGGGGCTCCCTGGGTACCAACTGGCTCCTGAGGCCTGGGGGAGGGTGGTCTTCTGGGAGAAGGAAGCCAGGTCCCTGCAGGTTGTGGAGGGGGACAGAATGAGGGTTTTTCCCCAGGATGTTGTTGGCCCCTGCCCCCACTTCTGTTCCATAATTAACCACGCCCCTCCTACCCACTGTGCCCCTCTTCCTGCTGTGTGGAGGCCCTGAATCATTATTTTAACTACCCCCTGGGAGGGTGAGCACCTTCTGTGCTCTGTCCCCAACCTTCCACTTCCCCTCAACGCGCTGCTCAGGG (double strand) [CD11d promoter -591/+74 (luc reporter)]” came in with an activity in the series with Sp1 of 4.1 fold.
